Laboratory results reported in the RNAGym collection of RNA variant scans (doi:10.7554/elife.80360).

B1: Hammerhead Ribozyme (parent)
chain: ACCGGAUGUGCUUUCCGGUCUGAUGAGUCCGUGAGGACGAAACAG

Variants of: B1
Assay: self-cleavage, relative activity (ratio to wild type); higher = more cleavage; co-transcriptional

Compared with U19C A34U, U19C A34G is higher in self-cleavage: 0.339 for the first, 0.478 for the second.

First: U19C A34C
Second: U19C G25C
The self-cleavage of the first is higher: 0.411 for the first, 0.378 for the second.

First: U19C G25A
Second: U19C G25U
The self-cleavage of the first is higher: 0.312 for the first, 0.273 for the second.

Going from U19G U24A to U19G U24C, the self-cleavage falls from 0.472 to 0.255.

First: U19G U24G
Second: U19A U32A
The self-cleavage of the first is higher: 0.323 for the first, 0.321 for the second.

First: U19A U32G
Second: U19A U32C
The self-cleavage of the first is lower: 0.33 for the first, 0.377 for the second.

Compared with U19G C20U, U19G C20G is higher in self-cleavage: 0.306 for the first, 0.307 for the second.

First: U19G C20A
Second: C20A G22U
The self-cleavage of the first is lower: 0.316 for the first, 0.341 for the second.

First: C20A G22A
Second: C20A G22C
The self-cleavage of the first is lower: 0.287 for the first, 0.349 for the second.

Going from C20A A44G to C20A A44U, the self-cleavage falls from 0.848 to 0.323.

Going from C20A A44C to C20A U32G, the self-cleavage falls from 0.366 to 0.255.

Going from C20A U32C to C20A U32A, the self-cleavage falls from 0.541 to 0.471.

Compared with U19G A42G, U19G A42U is higher in self-cleavage: 0.317 for the first, 0.345 for the second.

First: U19G A42C
Second: U19A G22U
The self-cleavage of the first is higher: 0.424 for the first, 0.3 for the second.

Compared with U19A G22C, U19A G22A is lower in self-cleavage: 0.356 for the first, 0.346 for the second.

First: U19C C30U
Second: U19C C30A
The self-cleavage of the first is higher: 0.878 for the first, 0.416 for the second.

First: U19C C30G
Second: U19C U28C
The self-cleavage of the first is lower: 0.459 for the first, 0.572 for the second.

Going from U19C U28G to U19C U28A, the self-cleavage rises from 0.435 to 0.524.

Going from C20A C43G to C20A C43A, the self-cleavage rises from 0.25 to 0.321.

Compared with C20A C43U, U19G G35A is lower in self-cleavage: 0.342 for the first, 0.282 for the second.

Going from U19G G35U to U19G G35C, the self-cleavage falls from 0.397 to 0.308.

First: C20A G35C
Second: C20A G35A
The self-cleavage of the first is lower: 0.385 for the first, 0.446 for the second.

Going from C20A G35U to U19C A23U, the self-cleavage rises from 0.345 to 0.372.

Going from U19C A23C to U19C A23G, the self-cleavage rises from 0.299 to 0.369.

First: U19A A26C
Second: U19A A26G
The self-cleavage of the first is higher: 0.364 for the first, 0.313 for the second.

Compared with U19A A26U, U19G G33C is higher in self-cleavage: 0.255 for the first, 0.426 for the second.

Going from U19G G33U to U19G G33A, the self-cleavage rises from 0.411 to 0.551.

First: U19A G25C
Second: U19A G25A
The self-cleavage of the first is lower: 0.296 for the first, 0.347 for the second.

Compared with U19A G25U, U19A U21G is lower in self-cleavage: 0.35 for the first, 0.314 for the second.

Going from U19A U21A to U19A U21C, the self-cleavage falls from 0.292 to 0.248.

First: U19C G39U
Second: U19C G39A
The self-cleavage of the first is lower: 0.271 for the first, 0.282 for the second.

Compared with U19C G39C, U19A G27C is higher in self-cleavage: 0.251 for the first, 0.401 for the second.

First: U19A G27A
Second: U19A G27U
The self-cleavage of the first is higher: 0.34 for the first, 0.26 for the second.

Going from C20A U24G to C20A U24A, the self-cleavage rises from 0.594 to 0.764.

Compared with C20A U24C, U19A U28G is higher in self-cleavage: 0.368 for the first, 0.374 for the second.

First: U19A U28A
Second: U19A U28C
The self-cleavage of the first is higher: 0.368 for the first, 0.313 for the second.

Going from G18U G45U to G18U G45C, the self-cleavage rises from 0.475 to 0.476.

First: C20A G33U
Second: C20A G33A
The self-cleavage of the first is lower: 0.548 for the first, 0.651 for the second.

Going from C20A G33C to U19G A41U, the self-cleavage falls from 0.555 to 0.342.

Compared with U19G A41G, U19G A41C is lower in self-cleavage: 0.345 for the first, 0.327 for the second.

Compared with C20A G25C, C20A G25U is higher in self-cleavage: 0.287 for the first, 0.619 for the second.

Compared with C20A G25A, U19G A26G is higher in self-cleavage: 0.309 for the first, 0.319 for the second.

Going from U19G A26U to U19G A26C, the self-cleavage falls from 0.332 to 0.323.

Going from U19G A44U to U19G A44C, the self-cleavage rises from 0.286 to 0.361.

Going from U19G A44G to U19A C29A, the self-cleavage falls from 0.623 to 0.332.

Going from U19A C29G to U19A C29U, the self-cleavage rises from 0.295 to 0.376.

Going from U19A U24C to U19A U24A, the self-cleavage rises from 0.362 to 0.465.

Going from U19A U24G to U19G C43G, the self-cleavage falls from 0.327 to 0.321.

Compared with U19G C43U, U19G C43A is lower in self-cleavage: 0.336 for the first, 0.319 for the second.

Compared with U19G U21C, U19G U21A is lower in self-cleavage: 0.471 for the first, 0.323 for the second.

Compared with U19G U21G, C20G A23C is lower in self-cleavage: 0.328 for the first, 0.271 for the second.

Going from C20G A23G to C20G A23U, the self-cleavage falls from 0.386 to 0.317.

Going from C20A C30U to C20A C30G, the self-cleavage falls from 0.498 to 0.353.

Compared with C20A C30A, C20A C29A is higher in self-cleavage: 0.286 for the first, 0.382 for the second.

Compared with C20A C29G, C20A C29U is higher in self-cleavage: 0.311 for the first, 0.357 for the second.

Compared with U19G A23U, U19G A23G is higher in self-cleavage: 0.23 for the first, 0.3 for the second.

Compared with U19G A23C, U19A A37C is higher in self-cleavage: 0.346 for the first, 0.43 for the second.

Compared with U19A A37G, U19A A37U is lower in self-cleavage: 0.326 for the first, 0.281 for the second.

Compared with U19A C43G, U19A C43A is lower in self-cleavage: 0.346 for the first, 0.279 for the second.

Going from U19A C43U to U19A A40G, the self-cleavage falls from 0.396 to 0.307.

Going from U19A A40C to U19A A40U, the self-cleavage rises from 0.339 to 0.35.

Going from U19C A37G to U19C A37U, the self-cleavage rises from 0.41 to 0.437.

First: U19C A37C
Second: U19G G25C
The self-cleavage of the first is higher: 0.668 for the first, 0.359 for the second.

Compared with U19G G25A, U19G G25U is higher in self-cleavage: 0.275 for the first, 0.37 for the second.

First: C20A A23G
Second: C20A A23U
The self-cleavage of the first is lower: 0.27 for the first, 0.36 for the second.

Going from C20A A23C to U19G G36C, the self-cleavage falls from 0.353 to 0.351.

Going from U19G G36A to U19G G36U, the self-cleavage falls from 0.38 to 0.301.

Compared with U19A C20G, U19A C20A is lower in self-cleavage: 0.31 for the first, 0.287 for the second.

Compared with U19A C20U, U19G C30A is higher in self-cleavage: 0.303 for the first, 0.376 for the second.

Going from U19G C30G to U19G C30U, the self-cleavage falls from 0.41 to 0.399.

Going from G18U U28G to G18U U28C, the self-cleavage falls from 0.581 to 0.351.

First: G18U U28A
Second: U19A G35C
The self-cleavage of the first is higher: 0.461 for the first, 0.422 for the second.

First: U19A G35U
Second: U19A G35A
The self-cleavage of the first is higher: 0.373 for the first, 0.317 for the second.

Going from U19C G36A to U19C G36C, the self-cleavage falls from 0.475 to 0.427.

Compared with U19C G36U, C20A A34G is lower in self-cleavage: 0.443 for the first, 0.341 for the second.

Compared with C20A A34C, C20A A34U is higher in self-cleavage: 0.34 for the first, 0.413 for the second.

Going from C20A G45A to C20A G45C, the self-cleavage rises from 0.396 to 0.414.

Compared with C20A G45U, C20A is higher in self-cleavage: 0.357 for the first, 0.541 for the second.

First: C20G
Second: U19C C20A
The self-cleavage of the first is higher: 0.341 for the first, 0.329 for the second.

Going from U19C C20G to U19C C20U, the self-cleavage rises from 0.289 to 0.321.

Compared with U19A A44G, U19A A44C is lower in self-cleavage: 0.512 for the first, 0.368 for the second.

Going from U19A A44U to U19G G22C, the self-cleavage rises from 0.262 to 0.308.

First: U19G G22U
Second: U19G G22A
The self-cleavage of the first is lower: 0.304 for the first, 0.394 for the second.

In the case of U19G C29G, the self-cleavage is reported as 0.307.
